For the assay, the target named is tetra-methyl rhodamine-labeled Aβ42 (TMR-Aβ) (UniProt P05067). Nature of the assay: other fluorescence titration.

Usually Kd stands for a measure of binding affinity in units of concentration. Lower therefore signals higher affinity.

Chain of tetra-methyl rhodamine-labeled Aβ42 (TMR-Aβ) (P05067 672-713): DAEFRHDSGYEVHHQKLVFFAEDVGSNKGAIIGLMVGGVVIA

Take “granulin-3, fully reduced (rGRN-3) (from UniProt P28799 206-261) (natural protein)”: the Kd amounted to 2550 nM. This counts as single-digit micromolar.

For the origin of these results see paper PMC6647844.
